Positions count from the first letter of the chain named.
Assays:
[1] = target: T1, FLAG-tagged wild-type Ephexin4 (murine, UniProt Q3U5C8 1-713); assay: cell-based or functional assay
T1 sequence (looked up): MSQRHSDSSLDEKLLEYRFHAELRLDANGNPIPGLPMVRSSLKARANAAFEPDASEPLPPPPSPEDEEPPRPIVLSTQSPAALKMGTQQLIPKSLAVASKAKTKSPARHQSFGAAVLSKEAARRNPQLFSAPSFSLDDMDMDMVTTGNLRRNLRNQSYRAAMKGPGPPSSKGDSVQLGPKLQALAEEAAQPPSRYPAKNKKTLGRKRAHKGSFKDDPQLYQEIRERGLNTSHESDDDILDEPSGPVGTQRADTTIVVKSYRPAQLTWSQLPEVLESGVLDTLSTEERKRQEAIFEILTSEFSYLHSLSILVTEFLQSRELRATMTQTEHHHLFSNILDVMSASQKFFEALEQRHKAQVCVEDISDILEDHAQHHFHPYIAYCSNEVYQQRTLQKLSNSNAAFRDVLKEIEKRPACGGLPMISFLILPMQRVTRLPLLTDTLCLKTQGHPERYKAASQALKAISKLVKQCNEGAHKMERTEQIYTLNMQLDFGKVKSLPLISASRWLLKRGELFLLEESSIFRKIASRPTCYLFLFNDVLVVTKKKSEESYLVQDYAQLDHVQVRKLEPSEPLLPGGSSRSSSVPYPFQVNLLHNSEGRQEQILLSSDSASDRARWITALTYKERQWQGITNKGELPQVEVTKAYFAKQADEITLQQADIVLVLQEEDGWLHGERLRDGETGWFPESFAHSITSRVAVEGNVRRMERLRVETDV

[2] = target: T2, FLAG-tagged Ephexin4^E295A (murine, UniProt Q3U5C8 1-713, E295A); assay: cell-based or functional assay
T2 sequence (looked up): T1 sequence (looked up) with E295A

B1: GFP-RhoG (natural protein)
chain: not shown
[1]
  level of active (GTP-bound) RhoG precipitated by GST-Elmo2^N-term from 293T cells expressing wild-type Ephexin4, against control cells (Figure 3a,b): 1.6 fold
  level of active endogenous RhoG (293T) precipitated by GST-Elmo2^N-term from cells expressing wild-type Ephexin4 (Figure 3c,d): 1.6 fold
[2]
  level of active (GTP-bound) RhoG precipitated by GST-Elmo2^N-term from 293T cells expressing Ephexin4^E295A, against control cells (Figure 3a,b): 2.9 fold
  level of active endogenous RhoG (293T) precipitated by GST-Elmo2^N-term from cells expressing Ephexin4^E295A (Figure 3c,d): 2.6 fold
